The source of these data is the RNAGym collection of RNA variant scans (doi:10.7554/elife.90254).

Sequences and labels used below:
B1: LINE1-mini (parent)
chain: GGCAGAGCUCAACACAGCGUGGCAAAGUGGCUGUGGCUAGACUGCC

Variants of B1 are the subject of the data set. Kind of data set: self-cleavage, relative activity (ratio to wild type); higher = more cleavage; in vitro, sequencing; the parent is a self-cleaving ribozyme.
For the variant A4U G27U, the self-cleavage came out at 0.14.
As to A4U G27C, the self-cleavage was found to be 0.17.
On to G5C A11G, for which the self-cleavage came to 0.05.
Take G5C A11C: the self-cleavage came to 0.04.
On to G5C A11U, for which the self-cleavage was determined as 0.03.
With A4U U20G, the self-cleavage is 0.09.
For A4U U20C, the self-cleavage was determined as 0.13.
A4U U20A: the self-cleavage amounted to 0.12.
Take A4U U43C: the self-cleavage is 0.03.
In the case of A4U U43A, the self-cleavage was 0.67.
For the variant A4U U43G, the self-cleavage was determined as 0.06.
With A4U A39C, the self-cleavage came out at 0.27.
Take A4U A39U: the self-cleavage was 0.11.
As to A4U A39G, the self-cleavage is 0.07.
Consider G5C C15A, for which the self-cleavage is 0.05.
For G5C C15G, the self-cleavage was 0.03.
The value for G5C C15U was 0.08; that for A4U U9G was 0.07; that for A4U U9C was 0.07.
As for A4U U9A, the self-cleavage turned out to be 0.29.
On to G5A U43C, for which the self-cleavage worked out at 0.07.
As to G5A U43G, the self-cleavage amounted to 0.86.
Consider G5A U43A, for which the self-cleavage worked out at 0.05.
The value for A4U C31U was 0.1; that for A4U C31G was 0.05; that for A4U C31A was 0.05.
Regarding G5A C46A, the self-cleavage was 0.11.
With G5A C46U, the self-cleavage is 0.12.
Take G5A C46G: the self-cleavage is 0.16.
For G5A C13U, the self-cleavage came out at 0.15.
Regarding G5A C13G, the self-cleavage is 0.08.
The value for G5A C13A was 0.15; that for G5C C31U was 0.05; that for G5C C31A was 0.08.
Take G5C C31G: the self-cleavage amounted to 0.06.
For the variant G5A A12G, the self-cleavage amounted to 0.08.
As to G5A A12C, the self-cleavage is 0.04.
As for G5A A12U, the self-cleavage came out at 0.09.
For the variant G5A U32C, the self-cleavage was 0.07.
Turning to G5A U32G, the self-cleavage came to 0.04.
G5A U32A: the self-cleavage was determined as 0.06.
On to G5A A39U, for which the self-cleavage was found to be 0.1.
As for G5A A39G, the self-cleavage is 0.08.
G5A A39C: the self-cleavage was 0.24.
Turning to A4U A41U, the self-cleavage was 0.12.
For the variant A4U A41G, the self-cleavage stood at 0.05.
For A4U A41C, the self-cleavage came out at 0.11.
The value for G5C G21A was 0.1; that for G5C G21U was 0.09.
Take G5C G21C: the self-cleavage was 0.04.
G5C G17C: the self-cleavage was determined as 0.03.
G5C G17U: the self-cleavage was 0.04.
In the case of G5C G17A, the self-cleavage turned out to be 0.04.
For the variant A4U A6U, the self-cleavage is 0.13.
Turning to A4U U34A, the self-cleavage stood at 0.08.
Consider A4U U34G, for which the self-cleavage came out at 0.06.
Turning to A4U U34C, the self-cleavage worked out at 0.08.
Next, A4U A25U: 0.84.
The value for A4U A25G was 0.08.
On to A4U A25C, for which the self-cleavage was 0.08.
The value for G5C A41U was 0.09; that for G5C A41G was 0.07; that for G5C A41C was 0.04.
Take G5A A11C: the self-cleavage was 0.03.
Next, G5A A11U: 0.04; G5A A11G: 0.03.
In the case of A4U C13U, the self-cleavage came to 0.14.
For the variant A4U C13A, the self-cleavage was 0.12.
For A4U C13G, the self-cleavage was determined as 0.1.
In the case of G5C A25U, the self-cleavage is 0.09.
In the case of G5C A25G, the self-cleavage came out at 0.06.
Take G5C A25C: the self-cleavage was found to be 0.05.
Next, G5A U34A: 0.07.
Take G5A U34G: the self-cleavage was 0.04.
Next, G5A U34C: 0.08; G5C C45U: 0.06.
For the variant G5C C45A, the self-cleavage turned out to be 0.05.
As to G5C C45G, the self-cleavage was determined as 0.05.
Consider G5C C10U, for which the self-cleavage is 0.04.
Next, G5C C10G: 0.02; G5C C10A: 0.05.
With G5A C10G, the self-cleavage turned out to be 0.03.
In the case of G5A C10U, the self-cleavage was found to be 0.09.
G5A C10A: the self-cleavage was found to be 0.04.
Take G5C G22U: the self-cleavage amounted to 0.04.
On to G5C G22C, for which the self-cleavage is 0.13.
The value for G5C G22A was 0.08; that for G5C A6C was 0.23.
With G5C A6G, the self-cleavage was determined as 0.09.
G5C A6U: the self-cleavage turned out to be 0.06.
Take G5A G33C: the self-cleavage stood at 0.09.
The value for G5A G33A was 0.1; that for G5A G33U was 0.05.
With G5C G29C, the self-cleavage was determined as 0.05.
With G5C G29U, the self-cleavage amounted to 0.12.
As for G5C G29A, the self-cleavage is 0.05.
The value for G5C C13G was 0.13; that for G5C C13A was 0.09; that for G5C C13U was 0.05.
With G5C C42G, the self-cleavage stood at 0.46.
In the case of G5C C42U, the self-cleavage was found to be 0.05.
With G5C C42A, the self-cleavage turned out to be 0.09.
For the variant G5A U38A, the self-cleavage amounted to 0.16.
The value for G5A U38C was 0.09; that for G5A U38G was 0.02.
On to A4U G21U, for which the self-cleavage worked out at 0.35.
In the case of A4U G21C, the self-cleavage is 0.24.
Next, A4U G21A: 0.48; G5C G19A: 0.14.
Regarding G5C G19U, the self-cleavage was 0.14.
For the variant G5C G19C, the self-cleavage is 0.08.
A4U G5U: the self-cleavage stood at 0.12.
Take A4U G5C: the self-cleavage was found to be 0.45.
Consider A4U G5A, for which the self-cleavage was 0.1.
In the case of G5C, the self-cleavage amounted to 0.07.
As for G5A, the self-cleavage came out at 0.16.
For A4U G36A, the self-cleavage amounted to 0.12.
Next, A4U G36U: 0.08.
Regarding A4U G36C, the self-cleavage is 0.07.
The value for A4U U38G was 0.03; that for A4U U38C was 0.17.
In the case of A4U U38A, the self-cleavage came out at 0.12.
As for A4U A16C, the self-cleavage was 0.19.
As to A4U A16G, the self-cleavage stood at 0.12.
Take A4U A16U: the self-cleavage was 0.15.
With A4U C45G, the self-cleavage came out at 0.15.
On to A4U C45A, for which the self-cleavage was 0.1.
On to A4U C45U, for which the self-cleavage came to 0.16.
For the variant G5A G7U, the self-cleavage was determined as 0.26.
G5A G7A: the self-cleavage came out at 0.35.
For the variant G5A G7C, the self-cleavage came to 0.23.
Turning to A4U U28A, the self-cleavage came to 0.19.
Take A4U U28G: the self-cleavage was determined as 0.17.
The value for A4U U28C was 0.32; that for G5A A24C was 0.08.
G5A A24G: the self-cleavage is 0.23.
For the variant G5A A24U, the self-cleavage was found to be 0.11.
Consider A4U A12C, for which the self-cleavage stood at 0.03.
The value for A4U A12G was 0.05.
Take A4U A12U: the self-cleavage is 0.12.
The value for G5A G22A was 0.18; that for G5A G22U was 0.14.
Next, G5A G22C: 0.13; A4U G44U: 0.25; A4U G44A: 0.17.
Take A4U G44C: the self-cleavage worked out at 0.12.
Next, A4U A14U: 0.1; A4U A14C: 0.12; A4U A14G: 0.15.
The value for G5A C18U was 0.14.
Next, G5A C18G: 0.09; G5A C18A: 0.1; A4U G33U: 0.12.
In the case of A4U G33A, the self-cleavage was 0.07.
A4U G33C: the self-cleavage was found to be 0.09.
In the case of A4U A24C, the self-cleavage came out at 0.4.
On to A4U A24G, for which the self-cleavage stood at 0.26.
As for A4U A24U, the self-cleavage amounted to 0.21.
For the variant A4U C42U, the self-cleavage was determined as 0.14.
The value for A4U C42G was 0.08.
The value for A4U C42A was 0.11; that for G5C C46A was 0.09.
Next, G5C C46G: 0.11; G5C C46U: 0.06; G5A C15U: 0.11.
For G5A C15G, the self-cleavage turned out to be 0.05.
On to G5A C15A, for which the self-cleavage was 0.1.
